Laboratory results taken from article PMC4356368, “Four crystal structures of human LLT1, a ligand of human NKR-P1, in varied glycosylation and oligomerization states” (Acta Crystallographica Section D: Biological Crystallography, 2015).

Columns and labels:
[1] = biological target: LLT1 produced in the HEK293T cell line with wild-type complex N-glycosylation (human); experiment: AUC; sedimentation velocity, 50 000 rev/min, 20°C, absorbance 280 nm, 10 mM HEPES pH 7.5, 150 mM NaCl, 10 mM NaN3; several concentrations (HEK293T protein at 0.2 mg/ml and tenfold diluted; GnTI- protein at five concentrations); continuous size-distribution and monomer-dimer self-association models; dimer to monomers
[2] = biological target: the molecule itself; experiment: crystal structure; LLT1_D1 and LLT1_D2: deglycosylated protein, 30%(w/v) PEG 6000, 0.1 M HEPES pH 7.0, 294 K; one dimer in the asymmetric unit, P212121
[3] = biological target: the molecule itself; experiment: dynamic light scattering; 1 mg/ml in 10 mM HEPES, 150 mM NaCl, 10 mM NaN3 pH 7.5; 291, 298 and 303 K
[4] = biological target: the molecule itself; experiment: crystal structure; LLT1_glyco: GlcNAc2Man5-glycosylated protein, 40%(v/v) PEG 300, 0.1 M citrate-phosphate pH 4.2, 288 K; P6322, hexamer of three dimers by crystal symmetry
[5] = biological target: the molecule itself; experiment: AUC; sedimentation velocity, 50 000 rev/min, 20°C, absorbance 280 nm, 10 mM HEPES pH 7.5, 150 mM NaCl, 10 mM NaN3; several concentrations (HEK293T protein at 0.2 mg/ml and tenfold diluted; GnTI- protein at five concentrations); continuous size-distribution and monomer-dimer self-association models; dimer to monomers

“LLT1 produced in the HEK293T cell line with wild-type complex N-glycosylation (domain or fragment)” gave a stoichiometry N [1] of 2.

B1: Human LLT1 C-type lectin-like extracellular domain (Gln72-Val191, His176Cys), deglycosylated after the first N-acetylglucosamine unit (domain or fragment)
chain: ITGQAACPESWIGFQRKCFYFSDDTKNWTSSQRFCDSQDADLAQVESFQELNFLLRYKGPSDHWIGLSREQGQPWKWINGTEWTRQFPILGAGECAYLNDKGASSARCYTERKWICSKSDIHV
modifications: single N-linked GlcNAc left at Asn95 and Asn147 after Endo F1
notes: remnant of the secretion leader at the beginning of the chain; LLT1 (lectin-like transcript 1), human, UniProt Q9UHP7 isoform 1, CTL extracellular domain Gln72-Val191 with His176 to Cys176; Same polypeptide as m1; it differs only in the glycans; L-arginine-HCl (0.4 M) was added after deglycosylation; also called LLT1_mono; LLT1_D1
In the case of B1, the “stoichiometry N” value [2] is reported as 2.

B2: Human LLT1 C-type lectin-like extracellular domain (Gln72-Val191, His176Cys) with homogeneous GlcNAc2Man5 N-glycosylation (domain or fragment)
chain: ITGQAACPESWIGFQRKCFYFSDDTKNWTSSQRFCDSQDADLAQVESFQELNFLLRYKGPSDHWIGLSREQGQPWKWINGTEWTRQFPILGAGECAYLNDKGASSARCYTERKWICSKSDIHV
modifications: N-linked GlcNAc2Man5 glycans at Asn95 and Asn147
notes: remnant of the secretion leader at the beginning of the chain; LLT1 (lectin-like transcript 1), human, UniProt Q9UHP7 isoform 1, CTL extracellular domain Gln72-Val191 with His176 to Cys176; the construct is described in Bláha et al. (2015); also called LLT1_glyco; glycosylated LLT1; source: HEK293S GnTI- cells, transiently transfected, secreted, purified (Talon IMAC, Superdex 200 SEC)
B2 was tested, and the “stoichiometry N” value [3] was 2, the “stoichiometry N” value [4] was 6 and the Kd [5] was about 20 µM.
